# Patent US20250313626A1 (HARBOUR BIOMED SHANGHAI, published 2025)
# Like-named read-outs stand apart in the source and are kept apart here.
# T1: human CD200R1 isoform a on CHOK1 cells (CHOK1/hCD200R1a) (human, UniProt Q8TD46 25-348)
# T1 construct: also called CHOK1/CD200R1a
# T1 sequence: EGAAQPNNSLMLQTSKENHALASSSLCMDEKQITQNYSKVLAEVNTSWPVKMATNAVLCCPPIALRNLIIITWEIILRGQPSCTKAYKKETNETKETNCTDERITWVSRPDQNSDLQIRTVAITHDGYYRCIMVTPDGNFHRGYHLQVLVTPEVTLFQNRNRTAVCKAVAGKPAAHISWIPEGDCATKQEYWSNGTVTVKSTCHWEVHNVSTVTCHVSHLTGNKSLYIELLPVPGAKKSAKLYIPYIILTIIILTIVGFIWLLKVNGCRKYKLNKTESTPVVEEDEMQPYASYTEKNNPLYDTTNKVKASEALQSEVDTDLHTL
# T2: Cynomolgus macaques CD200R1 isoform a on CHOK1 cells (CHOK1/cynoCD200R1a) (Cynomolgus macaques)
# T2 chain: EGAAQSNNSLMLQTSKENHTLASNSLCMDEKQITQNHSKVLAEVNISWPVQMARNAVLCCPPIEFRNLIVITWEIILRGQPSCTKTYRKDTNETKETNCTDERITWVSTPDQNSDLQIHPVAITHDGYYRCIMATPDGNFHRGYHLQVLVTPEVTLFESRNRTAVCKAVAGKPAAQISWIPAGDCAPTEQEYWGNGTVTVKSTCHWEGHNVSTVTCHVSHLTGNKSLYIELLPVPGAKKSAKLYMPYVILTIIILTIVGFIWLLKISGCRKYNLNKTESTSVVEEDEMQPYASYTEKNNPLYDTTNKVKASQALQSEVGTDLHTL
# T3: CD200 (human CD200 on CHOK1/hCD200 cells)
# T3 single chain: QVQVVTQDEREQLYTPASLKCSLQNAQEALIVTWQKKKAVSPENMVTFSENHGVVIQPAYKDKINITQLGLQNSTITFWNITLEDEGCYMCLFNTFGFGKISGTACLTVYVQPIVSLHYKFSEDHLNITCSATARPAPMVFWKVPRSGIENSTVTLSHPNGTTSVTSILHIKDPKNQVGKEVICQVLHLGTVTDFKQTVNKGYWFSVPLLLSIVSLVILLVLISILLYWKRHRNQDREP
# B1: PR200526 (antibody, human IgG1, lambda, V domains shown)
# VH: QVQLVQSGAEVKKPGQSLRISCKGAGYSFSTYWIGWVRQMPGKGLEWMGIIYPDDSDTRYSPSFEGQVTISVDKSITTAYLHWSSLKASDTAIYYCARLVGGAPAYWGQGTLVTVSS
# VL: QSALTQPASVSGSPGQSITISCSGSSSDIGRYDYVSWYQHYPDKAPKLIIYEVKHRPSGISHRFSASKSGNTASLTISELQPGDEADYYCASYTESKTYIFGGGTKVTVLG
# notes: also called IgG1; hIgG1
# B2: PR200691 (antibody, human IgG4 S228P, kappa, F234A L235A, V domains shown)
# VH: QVQLVESGGGVVQPGRSLRLSCAASGFTFSRYGMHWVRQAPGKGLEWVAVIPYDGSNKYYADSVKGRFTISRDISKNTLYLQMNSLRAEDTAVYYCARRGYYDSSGYYYFYYGMDVWGQGTTVTVSS
# VL: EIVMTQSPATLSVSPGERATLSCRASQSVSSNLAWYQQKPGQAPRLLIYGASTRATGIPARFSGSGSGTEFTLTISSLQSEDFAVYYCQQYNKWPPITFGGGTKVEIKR
# B3: PR002903 (antibody, human IgG2, kappa, V domains shown)
# VH: QVQLQQSGSELKKPGASVKISCKASGYSFTDYIILWVRQNPGKGLEWIGHIDPYYGSSNYNLKFKGRVTITADQSTTTAYMELSSLRSEDTAVYYCGRSKRDYFDYWGQGTTLTVSS
# VL: DIQMTQSPSSLSASIGDRVTITCKASQDINSYLSWFQQKPGKAPKLLIYRANRLVDGVPSRFSGSGSGTDYTLTISSLQPEDFAVYYCLQYDEFPYTFGGGTKLEIKR
# Assays:
# [1] = molecular target: T1, human CD200R1 isoform a on CHOK1 cells …; assay: flow cytometry on CHOK1/hCD200R1a cells
# Procedure: (§1) This example is intended to investigate the in vitro binding activity of human anti-CD200R1 monoclonal antibodies to human/Cynomolgus macaques CD200R1a expressed on the surface of cells. The anti-CD200R1 antibodies were produced as described in Example 3.4 and the binding experiments at the cell level were performed using CHOK1/hCD200R1a and CHOK1-cynoCD200R1a.
# (§2) Briefly, CHOK1/hCD200R1a cells and CHOK1-cynoCD200R1a cells were digested, and collected, and then were resuspended in PBS containing 2% BSA, respectively. The cell density was adjusted to 1×10⁶ cells/mL. The cells were seeded in a 96-well V-bottom plate (Corning, #3894) at 100 μL/well, followed by the addition of test antibodies and reference antibodies in a series diluted concentration, each at 100 μL/well. The cells were incubated away from light at 4° C. for 1 h. Thereafter, the cells in each well were rinsed twice with 100 μL of pre-cooled PBS containing 2% BSA, and centrifuged at 500 g at 4° C. for 5 min, and then the supernatant was discarded. […] Finally, the cells in each well were resuspended in 200 μL of pre-cooled PBS containing 2% BSA, and the fluorescence signal values were read using a BD CantoII flow cytometer.
# [2] = molecular target: T2, Cynomolgus macaques CD200R1 isoform a …; assay: flow cytometry on CHOK1/cynoCD200R1a cells
# Procedure: as §1, §2
# [3] = molecular target: T1, human CD200R1 isoform a on CHOK1 cells …; assay: flow cytometry, Alexa Fluor 647-labelled antibody on CHOK1/hCD200R1a cells
# Procedure: Briefly, CHOK1/hCD200R1a cells and CHOK1-cynoCD200R1a cells were digested, and collected, and then were resuspended in PBS containing 2% BSA, respectively. The cell density was adjusted to 1×10⁶ cells/mL. The cells were seeded in a 96-well V-bottom plate (Corning, #3894) at 100 μL/well, followed by the addition of test antibodies and reference antibodies in a series diluted concentration, each at 100 μL/well. The cells were incubated away from light at 4° C. for 1 h. Thereafter, the cells in each well were rinsed twice with 100 μL of pre-cooled PBS containing 2% BSA, and centrifuged at 500 g at 4° C. for 5 min, and then the supernatant was discarded. […] The cells in each well were rinsed twice with 100 μL of pre-cooled PBS containing 2% BSA, and centrifuged at 500 g at 4° C. for 5 min, and then the supernatant was discarded. Finally, the cells in each well were resuspended in 200 μL of pre-cooled PBS containing 2% BSA, and the fluorescence signal values were read using a BD CantoII flow cytometer.
# The cell density was adjusted to 1×10⁶ cells/mL.
# [4] = molecular target: T3, CD200 (human CD200 on CHOK1/hCD200 …); assay: cell-based or functional assay
# [5] = molecular target: T3, CD200 (human CD200 on CHOK1/hCD200 …); assay: cell-based or functional assay
# [6] = molecular target: T3, CD200 (human CD200 on CHOK1/hCD200 …); assay: cell-based or functional assay
# [7] = molecular target: T3, CD200 (human CD200 on CHOK1/hCD200 …); assay: cell-based or functional assay
# [8] = molecular target: T3, CD200 (human CD200 on CHOK1/hCD200 …); assay: cell-based or functional assay
binder,measurement,setting,value
B1,binding result,[1],no binding (tested: log 2.5 nM (about 300 nM))
same,binding result,[2],no binding (tested: log 2.5 nM (about 300 nM))
B2,binding result,[3],binds
B3,"IC50 of the inhibition of CD200-induced PathHunter Jurkat CD200R1a luminescence (CHOK1/hCD200 cells as CD200 source); head without unit, x axis Log [Ab] (nM)",[4],4.18 nM
same,IC50 of the inhibition of CD200-induced PathHunter Jurkat CD200R1a luminescence (CHOK1/hCD200 cells as CD200 source),[5],2.4 nM
same,IC50 of the inhibition of CD200-induced PathHunter Jurkat CD200R1a luminescence (CHOK1/hCD200 cells as CD200 source),[6],3.4 nM
same,IC50 of the inhibition of CD200-induced PathHunter Jurkat CD200R1a luminescence (CHOK1/hCD200 cells as CD200 source),[7],4.01 nM
same,"IC50 of the inhibition of CD200-induced PathHunter Jurkat CD200R1a luminescence (CHOK1/hCD200 cells as CD200 source); head without unit, x axis Log [Ab] (nM)",[8],11.9 nM
